Assay results: patent US12636342B2, “TARS derived from Akkermansia muciniphila or fragment thereof, and use thereof” (KOREA RESEARCH INSTITUTE OF BIOSCIENCE AND BIOTECHNOLOGY, priority 2020, dated 2026)
Entries after “also recorded” stand apart in the source; their conditions may differ.

What was measured:
THP1 cells = assay: Immunoblotting of AmTARS/TLR2-induced signaling molecules in THP1 cells; type: cell-based, human
Procedure: (A and B) Analysis of key molecules that inhibit the MAPK and PI3K/AKT signaling pathways. IL-10 produced by BMDMs pre-treated with inhibitors of ERK (PD98059, […]), p38 (SB203580, […]), MSK1/2 (SB747651A, 10 μM), CREB (666-15, 1 μM), PI3K (Wortmannin, 10 μM), and AKT1/2 (AKT1/2, 10 μM) for 1 h before treatment with either PBS or AmTARS for 24 h (n=6 per group) (A). Flow cytometry analysis of M2 macrophages in BMDMs pre-treated for 1 h with the indicated kinase inhibitors, before treatment with either PBS or AmTARS for 24 h (n=3 per group) (B). (C and D) Western blot analysis of MAPK signaling molecules in lysates of BMDMs (C) or THP1 cells (D) treated for different times with 0.5 μM AmTARS. (E) Western blot analysis of lysates of BMDMs pre-treated with α-IgG (Isotype, 1 μg ml-1) or α-TLR2 (1 μg ml-1) for 1 h before treatment with PBS, AmTARS (0.5 μM), or Pam3 (0.5 μM) for 30 min. (F and G) Western blot analysis of PI3K/AKT signaling molecules in lysates of BMDMs (F) or THP1 cells (G) treated with 0.5 μM AmTARS. (H) AmTARS activates both TLR2/1- and TLR2/6-mediated signaling. Activation of AKT, ERK, and CREB was measured by western blot analysis of lysates of THP1 cells pre-treated with α-IgG, α-TLR1, α-TLR2, or α-TLR6 (1 μg ml-1) for 1 h before treatment for 30 min with PBS or AmTARS (0.5 µM). Data shown in (A and B) are representative of three independent experiments, each with similar results (mean±SEM). P-values were calculated using an unpaired two-tailed Student's t-test. Data shown in (C-H) are representative and repeated at least three times.
Subsequently, we conducted immunoblotting assays to measure the time-dependent activation of AmTARS/TLR2-induced signaling molecules in both BMDMs and THP1 cells. AmTARS rapidly activated ERK, p38, and MSK1/2 within 15 min and, subsequently, phosphorylation of CREB at Ser133 (which is essential for IL-10 production) within 30 min in BMDMs (FIG. 31C) and THP1 cells (FIG. 31D). We then compared AmTARS-triggered TLR2 signaling with typical ligand-triggered signaling using Pam3CSK4 (the synthetic canonical TLR2/1 agonist, referred to hereafter as Pam3) in BMDMs stimulated for 30 min. […] By contrast, activation of NF-κB was greater in Pam3-treated BMDMs than in AmTARS-treated BMDMs (FIG. 31E).

BMDMs from TLR2-KO mouse = assay: IL-10 production in BMDMs from TLR2 knock-out mice; type: cell-based
Description: The TLR2-dependent immune function of AmTARS was further corroborated using TLR2 knock-out (KO) mice. […] However, IL-10 production by […] (U1/U2) was abolished in BMDMs from TLR2-KO mice, providing further evidence that AmTARS regulates host immune cells via its unique regions in a TLR2-dependent manner (FIG. 28D).

[1] = Aminoacylation reaction (malachite green phosphate assay); type: biochemical; conditions: L-threonine, ATP, 30 min, free Pi at 620 nm
Procedure: TARS is an […] involved in protein synthesis, and the domain and site involved in its function are well known. The constructed deletion mutants were confirmed to have deletions of parts irrelevant to the function, but the aminoacylation reaction experiment was conducted to determine whether the deletion mutants performed the intrinsic functions thereof appropriately.
Specifically, a 2× reaction solution (100 mM Tris-HCl (pH 7.5), 20 mM MgCl2, 200 mM NaCl, 200 mM KCl, 2 mM DTT, 500 μM ATP, and 5 mM L-threonine) was prepared, and 25 μL of a reaction solution, 20 μL of distilled water, and 5 μL of protein were added to make a final 50 μL volume, followed by incubation for 30 min. Thereafter, a reaction was conducted using a malachite green phosphate assay kit (Bioassay Systems) for 30 min, and the free monophosphate group (Pi) was measured at a wavelength of 620 nm.

[2] = tested on: TLR2-KO mice with DSS-induced colitis; assay: DSS-induced colitis in TLR2-deficient mice; type: in vivo, mouse
Procedure: We assessed the role of TLR2 in AmTARS function in vivo. To verify whether the binding between AmTARS and TLR2 actually acted on the anti-inflammatory effect of AmTARS, an inflammatory bowel disease mouse model was prepared from TLR2-deficient mice by way of the same method as in Example 5 and investigated for anti-inflammatory efficacy after the administration of AmTARS. TLR2-KO mice were slightly more susceptible to DSS-induced colitis than WT mice, as reported previously (Rakoff-Nahoum et al., 2004).

[3] = tested on: mouse bone marrow-derived macrophages (BMDMs); assay: ELISA of immune cytokine secretion in BMDMs under normal conditions; type: cell-based; conditions: normal (non-inflammatory) conditions, 24 h
Outline: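 Mouse BMDMs from femur and tibia were cultured in DMEM with 10% FBS. Cells were treated with AmTARS at 0.1, 0.2 or 0.5 μM for 24 h. Cell-free supernatants were assayed by ELISA for mouse IL-6, IL-10 and TNF-α.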

macrophages (F4/80+) = assay: Identification of cells targeted by injected AmTARS (flow cytometry of PECs, colon immunofluorescence); type: in vivo, mouse; conditions: Mac2 immunofluorescence, His-tagged AmTARS 0.2 mg kg-1, 1 day
Procedure: To identify the cells targeted by AmTARS, mice with injected i.p. with fluorescently labeled AmTARS, and fluorescence-positive cells in peritoneal exudate cells (PECs), were analyzed by flow cytometry. […] Next, we used a Mac-2 immunofluorescence antibody to test whether i.p.-injected AmTARS targets intestinal macrophages. Intense expression of Mac2 was detected in colonic epithelium, as well as in macrophages located in the lamina propria.

B1: Akkermansia muciniphila-derived threonyl-tRNA synthetase (TARS) (protein)
chain: MSEHKERKTLEERQQMSDLERLRHSCAHVLATAICRLWPDAQLAGGPAVDNGFYYDVELDHRISTEDFERIEEEMKKVVKENQVFQKEVISRADAMKMAESGELGALGPRSEPSRFKIDLLNDIPEDEEISLYRNGDFTDLCAGPHVGRTGNCKAFKIMSVASAFYKGDKNRPMLQRIYGTCFPNRTQLDEHLERLEEARRRDHRKLGRELGLFCIDESVGQGLILWKPKGALIRRSLQDFITEELDKLGYSQVYTPNIGKLDLYRTSGHFPYYQESQYAPIPERDAMEKLSQEGASCAELFNGLATGTIEGYMLKPMNCPHHIKIYANDAHSYRDLPVRLAEFGTVYRWEQSGELGGMTRVRGFTQDDAHIFCTPDQLAGEIRQCLGIVKTIFGTLGMTDYRVRLSMRDPESDKYVGSPENWDKAEQALREAAEWLGADYSEEAGEAAFYGPKIDFIVRDAIGREWQLGTVQVDYNLPERFDLHYTGADNKPHRPVMVHRAPFGSMERFTGLLIEHFEGKFPTWLSPEQVRVLPISDKVTDVAAAHRTALAARGVRVTVDETPDKIGAKIRNARLDRVPYMLVLGQREAEDGTVSVRHRDKGDLGAMPFEQFADLVAREIAERHISPVI
modifications: Akkermansia muciniphila TARS
time to activation of AKT (THP1 cells; 0.5 μM AmTARS): ≤ 15 min
time to activation of ERK (THP1 cells; 0.5 μM AmTARS): ≤ 15 min
time to activation of MSK1/2 (THP1 cells; 0.5 μM AmTARS): ≤ 15 min
time to activation of PI3K (THP1 cells; 0.5 μM AmTARS): ≤ 15 min
time to activation of p38 (THP1 cells; 0.5 μM AmTARS): ≤ 15 min
time to inhibition of GSK3β activity (phosphorylation at Ser9) (THP1 cells; 0.5 μM AmTARS): ≤ 15 min
time to phosphorylation of CREB at Ser133 (THP1 cells; 0.5 μM AmTARS): ≤ 30 min
AmTARS-induced TLR2 signaling (AKT, ERK, CREB) after antibody pre-treatment (THP1 cells; α-TLR1, α-TLR2 or α-TLR6 1 μg ml-1 1 h, then AmTARS 0.5 μM 30 min): shut down by antibodies targeting TLR1, TLR6, and TLR2
IL-10 production (BMDMs from TLR2-KO mouse): did not induce IL-10 production
aminoacylation reaction / enzymatic activity [1]: an aminoacylation reaction was shown
colitis-induced body weight loss ([2]; TLR2-KO mice): did not improve
disease activity score ([2]; TLR2-KO mice): did not improve
B cells in the colon ([2]; TLR2-deficient mice): did not show efficacy of increasing B cells in the colon
amount of IgA ([2]; TLR2-deficient mice): a significant change in the amount of IgA could not be observed
increase in IL-10-secreting macrophage numbers ([2]; colitis TLR2-KO mice): did not induce
reduction in pro-inflammatory monocyte numbers ([2]; colitis TLR2-KO mice): did not induce
secretion/production of IL-6 [3]: not secreted; also recorded: no effect
secretion/production of IL-10 [3]: increased in a dose-dependent manner; also recorded: significant increase; also recorded: induced production; also recorded: specific to AmTARS
secretion/production of TNF-α [3]: not secreted; also recorded: no effect
co-localization of administered AmTARS (His) in the colon (macrophages (F4/80+)): co-localized mainly with macrophages in the lamina propria
